The nature of the series: label from the status in PepcDB records.
As for “MSNARIGIDMSKIYAPKSIDLSSFQLPDEKLQTKYGLPHKVEFCKSCVISNQRPNSAVEYEHKKESKKHTIHFDDEGICDACRVAERKKSTINWEERDRQLRELCDRFRSKDGSYDCVVPGSGGKDSFYAAHILKYKYGMNPLTVTWAPHMYTPWGWRNFQSWIHAGFDNHLFTPNGRVHRLLTRLAVENLFHPFQPFMIGQKAYAPKMALLHKIKLVVYGENEAEYGNPIGDTESAKRDWKYFTADDKSKIFLGGTSVQELKSDFGLNDNDLDAYLPADPQQIEEQQVEVHYLGYYLKWHPQSCYYYSVEHGGFEASPERTPGTYSKYNSIDDKIDDFHYYTTLTKFGIGRATYDASQEIRSGDITVEEGVALVKRFDQEFPERFAEEIFKYLSINLKEFPIASQMFEQPIMDRAYFMALADTFRSPHLWKKDGEQWKLRHQVTNLEKTKAEYLDLETV”, the protein production result is “not failed”.
To “MSNEHQLLVGLLKKLKDDALILPTLPEVAMRVQEVVGRPDSSLKQVAEIIGQDAAISARIIKVANSALYSRGVPAENINSAVTRIGLTQIKSIATSVAMEQLFISTNEMVWEVMDEVWRTSIDVTAAACSLLQIYNKKHPGSGLNYDTLTLAGLVHNIGALPVLTEAEAHPEMFTTIEHLRSLVRKMQGPIGRAVLKSWDFAPEVMEVVERWADLPYLGDHVSYLDFIRAAAFYTGELRAGNELEQRLDVFVKRGLPVSPEDLGSDAFLDSYHSIKASYE” belongs “not failed”; to “MSNIFLSLEPKILWSHFYRLTQIPRPSGHEEAVRTYVADVAKRCGLEWLVDEAGNIIVRKPASAGMERRRGVILQAHLDMVPQKNAGTAHDFTKDPIDAVIDGEWVHARGTTLGADNGIGVAAALAVLESDDLRHGPLEALFTVNEEAGMTGALGLKPGVLRGDILLNLDSEDEGELFIGCAGGLDGTMRFDYSCEPLPPGYSGIEIRVSGLRGGHSGMDIDLGRGNANKIMNRLLQMGREHHGLLLASIDGGSLRNAIPRESVALVAVPSAQKVAFLDELHSLASAIGLELNGVDPELRVEAADAALPVGMIDDTVAQRLFDAVAACPNGVHRMSEAMAGLVETSNNLARVHSDGRAVSVECLLRSASVEGMRELADAVAGIAERAGTVAAFENGYPGWKPNPASPILKCMVKVYRDRFGKTPEIRAVHAGLECGIIGANNPQLDMISFGPTIRHPHSPDEKVECSSVLKFWELLVATLEEVPEPLEHHHHHH”, “failed”.
To “MSNIITYLKNNSNLTFDELALNDVDILCLNEFGYISFEKLINTTEMKSVLVCELYHEYLQTMAKSYSFMFTSQRHDLCQLMMTSKRFKNLTLSYYRAEISLEFEKQFAAMVFTIPNINYHQVVFRGTDANLIGWKEDFKLTYMREISAHRSAIKYLNTILPYFDKVVLSGHSKGGNLALYAAMFTKPDLKAKIDLIWLIDSPGLQKTLLPTTEYKTTKQKCIRLLPEESIVGMMLYSDIEPLIISSNARGILQHDVTTWEIQEPAILKTGTGLSLKSICFEKTFQQWMAELKSQERKLFFDLLFDSFLSSGVSSLDDFNLASRAKMMKAFHSFRELDDDKKRLFNKSLKLLVTIFWGAYHDNSRETK” belongs “failed”; to “MSNLPLISVVIPTYGREEILRDSIVDVLNQDYPKYEVLVVDQSPKHKPEIETYLEEVAAAGKVKWFRLDWASLPGARNYAIRRASGEIILFIDDDVKLKPGFLAAHAKNYVQNPDVGSVAGRVFDRMKLGDSGGNLEIEYLPPEAMDPGVAWYHIDLVHTIKPQQVLTARGCNMSFRREIFTKHGLRFDERFRGSAVREESDFCLRLRQTGYKIWYDPEADLIHLGEETGGCHDISMRSLKYQFTFYHNHFLLGLKNLNFSQALRLYARLFDCHVLGRPPCHKSGSPIKIITRGIFYILGFFRALGSVIQSNWHDGQIYSRLDQESIIKSQESMVNS”, “failed”.
To “MSNNMQTVRESYEAFHRRDLPGVLAALAPDVRWTHPDGMSPYGLGGTKHGHDEVIAFIRHVPTHIAEMRLAPDEFIESGERIVVLGTRRVTAVNGRSATLKFVHVWRFENGRAVTFEDHFDTAEMIRLITA” belongs “not failed”.
With “MSNPLGELVKALEKLSFKPSDVRIYSLLLERGGMRVSEIARELDLSARFVRDRLKVLLKRGFVRREIVEKGWVGYIYSAEKPEKVLKEFKSSILGEIERIEKMFTD”, the protein production entry is “not failed”.
Then “MSNPQPEKVRVVVGDDHPLFREGVVRALSLSGSVNVVGEADDGAAALELIKAHLPDVALLDYRMPGMDGAQVAAAVRSYELPTRVLLISAHDEPAIVYQALQQGAAGFLLKDSTRTEIVKAVLDCAKGRDVVAPSLVGGLAGEIRQRAAPVAPVLSAREREVLNRIACGQSIPAIAAELYVAPSTVKTHVQRLYEKLGVSDRAAAVAEAMRQRLLD”, with “not failed”.

The values above are taken from a protein production outcome set (Wang et al. 2014).
